The target of experiment [1] is T1, PHF-tau (paired helical filament tau isolated from Alzheimer's disease brain) (human, UniProt P10636-8 2-441, limits assumed, hyper-phosphorylated, aggregated; sites not listed for the preparation).
T1 construct: also called enriched PHF-tau; ePHF-tau
Put plainly: SPR ProteOn, PHF-tau capture-coupled via HT7, bivalent model. The procedure:
(§1) Affinity matured monoclonal antibodies were tested for binding to PHF-tau isolated from Alzheimer's disease brain.
(§2) A GLC sensor chip was covalently immobilized with a mouse anti-tau antibody, HT7 (ThermoFisher, catalog# MN1000) using the vendor recommended protocol for amine-coupling chemistry (˜5000 response units, RU). The coupling buffer was 10 mM, pH 4.5 sodium acetate. PHF-tau was prepared by 2-times centrifugation at 5000×g in 5° C. for 10 min. […] After capture-coupling, the surface was activated and deactivated to generate a homogenous PHF-tau surface for antibody binding studies. The anti-tau antibodies and their Fabs (prepared in running buffer, 0.024-75 nM at 5-fold dilutions) were injected at 50 μL/min over the PHF-tau surface to measure binding. The association and dissociation profiles were monitored for 4 minutes and 2 hours, respectively. After dissociation, the sensor chip was regenerated using multiple injections of 10 mM Glycine pH 2.0 and the running buffer. A reference surface (without any PHF-tau) was used to monitor non-specific binding of the injected mAbs or Fabs. HT7 antibody was used as a positive control. The binding sensorgrams for mAbs were fit using a bivalent binding model where the apparent affinity or avidity-driven binding (KD) was reported as the ratio of off-rate and on-rate (koff/kₒₙ). A 1:1 Langmuir binding model was used for kinetics analysis of Fabs.

Experiment [2] concerns the target T1, PHF-tau (paired helical filament tau …). Nature of the experiment: SPR ProteOn, PHF-tau capture-coupled via HT7, bivalent model; lower end of range. On the procedure:
as §1
as §2, with “A 1:1 Langmuir binding model was used for kinetics analysis of Fabs.” left out

Experiment [3] shares this target. Put plainly: SPR ProteOn, PHF-tau capture-coupled via HT7, bivalent model; upper end of range; upper end of range. The procedure:
as §1
as §2, with “A 1:1 Langmuir binding model was used for kinetics analysis of Fabs.” left out

The target is the same in experiment [4]. Put plainly: SPR ProteOn, PHF-tau on chip.
The target is the same in experiment [5]. Put plainly: SPR ProteOn, PHF-tau capture-coupled via HT7, bivalent model; upper end of range. The procedure: as §1
as §2, with “A 1:1 Langmuir binding model was used for kinetics analysis of Fabs.” left out

Experiment [6] has the same target. Put plainly: SPR ProteOn, PHF-tau capture-coupled via HT7, bivalent model; lower end of range; lower end of range. The procedure: as §1
as §2, with “A 1:1 Langmuir binding model was used for kinetics analysis of Fabs.” left out

Experiment [7] addresses T2, tau phospho-peptide of the direct ELISA of Example 11.
T2 construct: also called pT217 peptide; pT212/pT217 peptide
Nature of the experiment: direct ELISA on plate-coated tau phospho-peptide (10 ng/mL), detection with HRPO-labelled anti-Fab antibody. The procedure:
Binding to tau phospho-peptide was analysed by ELISA where peptide (10 ng/mL) was directly coated to the plate overnight. […] After incubation with antibodies, plates were washed and 50 μL per well of HRPO labelled anti-Fab antibody (Jackson Immunoresearch laboratories) (diluted 1:10000 in blocking buffer). After another washing step detection was performed with “One step” TMB (Thermo Scientific) according to the manufacturers' instructions. Plates were analysed in EnVision® 2102 Multilabel Reader (Perkin Elmer, Waltham, Mass., USA). Binding curves were generated using GraphPad Prism7.0 software.

Experiment [8] deals with T2, tau phospho-peptide of the direct ELISA …. Nature of the experiment: direct ELISA, peptide coated. In short, it runs like this: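 Tau phospho-peptide coated directly on plates at 10 ng/mL overnight, then incubated with antibodies. Bound Fab detected with HRPO-labelled anti-Fab antibody (1:10000) and TMB substrate. Binding curves generated from the read-out.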
Background: ELISA stands for enzyme-linked immunosorbent assay.

T1 sequence (P10636 other isoform, or with tags, fused parts or gaps limits assumed): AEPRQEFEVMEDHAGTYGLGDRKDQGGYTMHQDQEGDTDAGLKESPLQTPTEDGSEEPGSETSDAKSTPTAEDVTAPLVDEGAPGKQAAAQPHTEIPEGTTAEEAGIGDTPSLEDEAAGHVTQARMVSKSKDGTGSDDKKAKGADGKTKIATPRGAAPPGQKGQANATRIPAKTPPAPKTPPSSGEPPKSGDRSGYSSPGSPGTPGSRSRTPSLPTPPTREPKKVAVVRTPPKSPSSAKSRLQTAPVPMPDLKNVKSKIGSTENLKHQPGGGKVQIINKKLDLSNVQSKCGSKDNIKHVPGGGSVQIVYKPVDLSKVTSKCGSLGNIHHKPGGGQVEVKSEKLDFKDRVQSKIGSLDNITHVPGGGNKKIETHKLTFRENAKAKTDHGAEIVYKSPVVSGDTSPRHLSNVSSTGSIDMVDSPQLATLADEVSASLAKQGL
T2 sequence (main, as listed by the source): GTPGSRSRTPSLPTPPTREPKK

B1: B711 (antibody, human IgG1, kappa, V domains shown)
VH: QVQLVESGGGVVQPGRSLRLSCAASGFTFTSYAMSWVRQAPGKGLEWVASITKGGNTYYADSVKGRFTISRDNSKNTLYLQMNSLRAEDTAVYYCARGWGIYGWFAYWGQVTLVTVSS
VL: DIQMTQSPSSLSASVGDRVTITCKASQDINRWLNWFQQKPGKAPKSLIYRANRLLDGVPSRFSGSGSGTDFTLTISSLQPEDFATYYCLQYDEFPLTFGQGTKLEIKR
notes: also called PT1B711
With B1, the Kd in experiment [1] came to 1.8 pM; in experiment [2], 1.6 pM; in experiment [5] it was 2.1 pM. The koff is 1.13e-05 s⁻¹ in experiment [1], 1.08e-05 s⁻¹ in experiment [2] and 1.17e-05 s⁻¹ in experiment [5]. For the same molecule, the kon in experiment [1] is 6.17e+06 M⁻¹ s⁻¹; in experiment [3], 6.61e+06 M⁻¹ s⁻¹; in experiment [6] it was 5.72e+06 M⁻¹ s⁻¹. Further, the “fold improvement in on-rate compared to the parent antibody (B296)” value in experiment [4] came to 3 fold. Besides, the concentration giving a half-maximal response (EC50 (read off the curve)) in experiment [7] was approximately 40 pM. This molecule also came in with a concentration giving a half-maximal response (EC50) in experiment [8] of 0.0707 nM.

What is called koff is the rate constant with which the complex falls apart. Usually kon stands for a measure of how fast the partners come together. Higher therefore signals faster complex formation. As usually defined, the EC50 (read off the curve) is the concentration needed to bring the measured effect to its halfway point. A lower EC50 (read off the curve) goes with higher potency in that assay. What is called EC50 is the concentration needed to bring the measured effect to its halfway point. A low value points to a more potent agent.

For the origin of these results see US20230047413A1 (Janssen / Centocor, published 2023).
